# Test results as given in US20250276090A1, “Methods and Compositions for Genetically Modifying a Cell” (Intellia Therapeutics, Inc., priority 2022, published 2025).
# Strand notation (5' to 3'): a small letter for the sugar, then the base; units joined by * are phosphorothioate-linked, units joined directly phosphodiester-linked; [ ] holds rarer units or linkages, { } end groups; capitals alone tell only the bases. m = 2'-O-methyl; r = 2'-OH (RNA)
# B1: G013533: AAVS1 SpyCas9 guide RNA, guide sequence SEQ ID NO: 256, chr19:55115691-55115711 (nucleic acid)
# guide: mA*mG*mA*rCrCrCrArArUrArUrCrArGrGrArGrArCrUrGrUrUrUrUrArGrAmGmCmUmAmGmAmAmAmUmAmGmCrArArGrUrUrArArArArUrArArGrGrCrUrArGrUrCrCrGrUrUrArUrCrAmAmCmUmUmGmAmAmAmAmAmGmUmGmGmCmAmCmCmGmAmGmUmCmGmGmUmGmCmU*mU*mU*mU
# B2: G013582: AAVS1 SpyCas9 guide RNA, guide sequence SEQ ID NO: 263, chr19:55115951-55115971 (nucleic acid)
# guide: mC*mC*mU*rGrUrCrArUrGrGrCrArUrCrUrUrCrCrArGrGrUrUrUrUrArGrAmGmCmUmAmGmAmAmAmUmAmGmCrArArGrUrUrArArArArUrArArGrGrCrUrArGrUrCrCrGrUrUrArUrCrAmAmCmUmUmGmAmAmAmAmAmGmUmGmGmCmAmCmCmGmAmGmUmCmGmGmUmGmCmU*mU*mU*mU
# B3: G000562: AAVS1 SpyCas9 guide RNA, guide sequence SEQ ID NO: 251, chr19:55115695-55115715 (nucleic acid)
# guide: mC*mC*mA*rArUrArUrCrArGrGrArGrArCrUrArGrGrArGrUrUrUrUrArGrAmGmCmUmAmGmAmAmAmUmAmGmCrArArGrUrUrArArArArUrArArGrGrCrUrArGrUrCrCrGrUrUrArUrCrAmAmCmUmUmGmAmAmAmAmAmGmUmGmGmCmAmCmCmGmAmGmUmCmGmGmUmGmCmU*mU*mU*mU
# B4: G013562: AAVS1 SpyCas9 guide RNA, guide sequence SEQ ID NO: 259, chr19:55115834-55115854 (nucleic acid)
# guide: mA*mA*mU*rArUrArArGrGrUrGrGrUrCrCrCrArGrCrUrGrUrUrUrUrArGrAmGmCmUmAmGmAmAmAmUmAmGmCrArArGrUrUrArArArArUrArArGrGrCrUrArGrUrCrCrGrUrUrArUrCrAmAmCmUmUmGmAmAmAmAmAmGmUmGmGmCmAmCmCmGmAmGmUmCmGmGmUmGmCmU*mU*mU*mU
# B5: G013523: AAVS1 SpyCas9 guide RNA, guide sequence SEQ ID NO: 255, chr19:55115637-55115657 (nucleic acid)
# guide: mG*mG*mU*rGrArCrArCrArCrCrCrCrCrArUrUrUrCrCrGrUrUrUrUrArGrAmGmCmUmAmGmAmAmAmUmAmGmCrArArGrUrUrArArArArUrArArGrGrCrUrArGrUrCrCrGrUrUrArUrCrAmAmCmUmUmGmAmAmAmAmAmGmUmGmGmCmAmCmCmGmAmGmUmCmGmGmUmGmCmU*mU*mU*mU
# B6: G013515: AAVS1 SpyCas9 guide RNA, guide sequence SEQ ID NO: 252, chr19:55115588-55115608 (nucleic acid)
# guide: mC*mC*mA*rUrCrGrUrArArGrCrArArArCrCrUrUrArGrGrUrUrUrUrArGrAmGmCmUmAmGmAmAmAmUmAmGmCrArArGrUrUrArArArArUrArArGrGrCrUrArGrUrCrCrGrUrUrArUrCrAmAmCmUmUmGmAmAmAmAmAmGmUmGmGmCmAmCmCmGmAmGmUmCmGmGmUmGmCmU*mU*mU*mU
# B7: G013584: AAVS1 SpyCas9 guide RNA, guide sequence SEQ ID NO: 264, chr19:55115949-55115969 (nucleic acid)
# guide: mC*mC*mC*rUrGrGrArArGrArUrGrCrCrArUrGrArCrArGrUrUrUrUrArGrAmGmCmUmAmGmAmAmAmUmAmGmCrArArGrUrUrArArArArUrArArGrGrCrUrArGrUrCrCrGrUrUrArUrCrAmAmCmUmUmGmAmAmAmAmAmGmUmGmGmCmAmCmCmGmAmGmUmCmGmGmUmGmCmU*mU*mU*mU
# B8: G013520: AAVS1 SpyCas9 guide RNA, guide sequence SEQ ID NO: 254, chr19:55115623-55115643 (nucleic acid)
# guide: mG*mA*mG*rArGrArUrGrGrCrUrCrCrArGrGrArArArUrGrUrUrUrUrArGrAmGmCmUmAmGmAmAmAmUmAmGmCrArArGrUrUrArArArArUrArArGrGrCrUrArGrUrCrCrGrUrUrArUrCrAmAmCmUmUmGmAmAmAmAmAmGmUmGmGmCmAmCmCmGmAmGmUmCmGmGmUmGmCmU*mU*mU*mU
# B9: G013564: AAVS1 SpyCas9 guide RNA, guide sequence SEQ ID NO: 261, chr19:55115836-55115856 (nucleic acid)
# guide: mU*mA*mU*rArArGrGrUrGrGrUrCrCrCrArGrCrUrCrGrGrUrUrUrUrArGrAmGmCmUmAmGmAmAmAmUmAmGmCrArArGrUrUrArArArArUrArArGrGrCrUrArGrUrCrCrGrUrUrArUrCrAmAmCmUmUmGmAmAmAmAmAmGmUmGmGmCmAmCmCmGmAmGmUmCmGmGmUmGmCmU*mU*mU*mU
# B10: G013563: AAVS1 SpyCas9 guide RNA, guide sequence SEQ ID NO: 260, chr19:55115835-55115855 (nucleic acid)
# guide: mA*mU*mA*rUrArArGrGrUrGrGrUrCrCrCrArGrCrUrCrGrUrUrUrUrArGrAmGmCmUmAmGmAmAmAmUmAmGmCrArArGrUrUrArArArArUrArArGrGrCrUrArGrUrCrCrGrUrUrArUrCrAmAmCmUmUmGmAmAmAmAmAmGmUmGmGmCmAmCmCmGmAmGmUmCmGmGmUmGmCmU*mU*mU*mU
# B11: G013519: AAVS1 SpyCas9 guide RNA, guide sequence SEQ ID NO: 253, chr19:55115616-55115636 (nucleic acid)
# guide: mG*mC*mA*rArGrGrArGrArGrArGrArUrGrGrCrUrCrCrGrUrUrUrUrArGrAmGmCmUmAmGmAmAmAmUmAmGmCrArArGrUrUrArArArArUrArArGrGrCrUrArGrUrCrCrGrUrUrArUrCrAmAmCmUmUmGmAmAmAmAmAmGmUmGmGmCmAmCmCmGmAmGmUmCmGmGmUmGmCmU*mU*mU*mU
# B12: G013565: AAVS1 SpyCas9 guide RNA, guide sequence SEQ ID NO: 262, chr19:55115850-55115870 (nucleic acid)
# guide: mG*mG*mA*rUrCrCrUrGrUrGrUrCrCrCrCrGrArGrCrUrGrUrUrUrUrArGrAmGmCmUmAmGmAmAmAmUmAmGmCrArArGrUrUrArArArArUrArArGrGrCrUrArGrUrCrCrGrUrUrArUrCrAmAmCmUmUmGmAmAmAmAmAmGmUmGmGmCmAmCmCmGmAmGmUmCmGmGmUmGmCmU*mU*mU*mU
# B13: G013559: AAVS1 SpyCas9 guide RNA, guide sequence SEQ ID NO: 258, chr19:55115823-55115843 (nucleic acid)
# guide: mC*mC*mG*rGrCrCrCrUrGrGrGrArArUrArUrArArGrGrGrUrUrUrUrArGrAmGmCmUmAmGmAmAmAmUmAmGmCrArArGrUrUrArArArArUrArArGrGrCrUrArGrUrCrCrGrUrUrArUrCrAmAmCmUmUmGmAmAmAmAmAmGmUmGmGmCmAmCmCmGmAmGmUmCmGmGmUmGmCmU*mU*mU*mU
# Tested on: AAVS1
# Test: GFP insertion at AAVS1 in T cells with SpyCas9 RNP and gapped AAV templates, flow cytometry (Example 6)
# Type: cell-based, human
# Conditions: day 7 post-editing
# Procedure: AAVS1 guide RNAs were designed and screened to identify insertion SpyCas9 guides using a series of gapped AAV GFP templates (A, B, C, D, OG) each designed for a subset of the guide RNAs. Insertion efficacy in T cells was examined by assessing GFP expression by flow cytometry. The percentage of T cells positive for green fluorescent protein (“% GFP+”) was assayed by flow cytometry, following AAVS1 editing by mRNA and AAV delivery.
# Healthy human donor apheresis was obtained commercially (Hemacare) from two donors (#110042863 and #110040377) and cells were washed and resuspended in MACS Buffer containing 2 mM EDTA and 0.5% Fetal Bovine Serum (FBS) in PBS. Cells were washed twice by centrifugation followed by CD3 negative selection using Easy Sep Human T Cell Isolation Kit (Stemcell, Cat. 100-0695) and separated using Easy Sep Magnets (Stemcell, Cat.18000). T cells were aliquoted and cryopreserved for future use in Cryostor® CS10 (StemCell Technologies Cat. 07930).
# AAVS1 guide RNAs were assessed for insertion efficacy in T cells by assessing GFP expression by flow cytometry. The percentage of T cells positive for green fluorescent protein (“% GFP+”) was assayed by flow cytometry, following AAVS1 editing by mRNA and AAV delivery.
# AAVS1 targeting sgRNAs corresponding to the flanking homology regions of Gap Templates A, B, C, D, & OG (SEQ ID NOs: 299-303) were removed from their storage plates and denatured for 2 minutes at 95° C. before cooling at room temperature for 10 minutes. RNP mixture of 20 μM sgRNA and 10 μM Cas9-NLS protein (SEQ ID NO: 296) was prepared and incubated at 25° C. for 10 minutes. 2.5 μL of RNP mixture was combined with 250,000 cells in […] P3 electroporation Buffer (Lonza). 22 μL of RNP/cell mix was transferred to the corresponding wells of a Lonza shuttle 96-well electroporation plate. Cells were electroporated in duplicate with the manufacturer's pulse code. T cell media described above without any cytokines was added to the cells immediately post electroporation. T cells were rested for 10 minutes at 37° C. Gap Template AAVs were prepared in 48 well plates (Corning, Cat.353078)) with T cell media described above containing 2× cytokines, 400 U/mL recombinant human interleukin-2 (Peprotech, Cat. 200-02), 10 ng/ml recombinant human interleukin 7 (Peprotech, Cat. 200-07), and 10 ng/ml recombinant human interleukin 15 (Peprotech, Cat. 200-15) cytokines. The multiplicity of infection (MOI) of AAVs was 3×10^^5. AAVs were added to the T cells within 15 minutes post electroporation and incubated for 48 hours at 37° C. AAV-6 vectors encoded AAVS1 Template A, B, C, D or OG. Two days post-electroporation, cells were split 1:2 in 48 well plates replenished with T cell media with 1× cytokines as described above. sgRNAs were tested each with AAV constructs and gapped template.
# On day 7 post-editing, cells were phenotyped by flow cytometry to determine GFP expression to confirm integration of AAV at their GAP template site. Briefly, T cells were washed in FACS buffer containing 2 mM EDTA (Invitrogen, Cat.15575020) and 1% FBS in PBS followed by re-suspending in FACS buffer containing 1:10,000 dilution of DAPI (Biolegend, Cat.422801) nuclear stain. Cells were then processed on a Cytoflex flow cytometer (Beckman Coulter) and analyzed using the FlowJo software package. T cells were gated based on size, shape, viability, and GFP expression. Values that were not determined by the flow cytometer were denoted as “ND”. Table 18 and FIGS. 8A-8B show mean percentage of T cells positive for GFP expression.
Molecule,"Mean percentage of T cells positive for GFP expression (Donor 1, Template A) [%]","Mean percentage of T cells positive for GFP expression (Donor 2, Template A) [%]","Mean percentage of T cells positive for GFP expression (Donor 1, Template B) [%]","Mean percentage of T cells positive for GFP expression (Donor 1, Template D) [%]","Mean percentage of T cells positive for GFP expression (Donor 2, Template B) [%]","Mean percentage of T cells positive for GFP expression (Donor 2, Template D) [%]",further results
B1,,,,,,,"Mean percentage of T cells positive for GFP expression (Donor 1, Template C): 65.65%; Mean percentage of T cells positive for GFP expression (Donor 2, Template C): 65.15%"
B2,66.30,61.00,,,,,
B3,30.60,41.20,34.00,29.65,32.75,27.50,"Mean percentage of T cells positive for GFP expression (Donor 1, Template C): 57.95%; Mean percentage of T cells positive for GFP expression (Donor 1, Template OG): 41.75%; Mean percentage of T cells positive for GFP expression (Donor 2, Template C): 59.10%; Mean percentage of T cells positive for GFP expression (Donor 2, Template OG): 37.80%"
B4,65.75,62.35,63.60,,65.40,,
B5,,,,70.50,,72.05,
B6,,,,,,,"Mean percentage of T cells positive for GFP expression (Donor 1, Template C): 61.15%; Mean percentage of T cells positive for GFP expression (Donor 2, Template C): 60.95%"
B7,69.15,62.95,,,,,
B8,,,,71.80,,72.20,
B9,65.95,61.20,61.50,,63.45,,
B10,73.15,69.40,69.15,,71.35,,
B11,,,,73.35,,72.10,
B12,,,63.50,,65.00,,
B13,,,65.55,,64.05,,
